Measurements published in patent US20250340659A1 (PETMEDIX, published 2025).
Positions count from the first letter of the chain named.

B1: PMX053 (antibody, V domains shown)
VH: EVQLVESGGDLVKPAGSLRLSCVASGFTFSSYSMSWVRQAPEKGLQLVAGINSAGSSTYYTDAVKGRFTISRDNAKNTVYLQMNSLRAEDTAIYYCAKRWVFDYWGQGTLVTVSS
VL: DIVMTQTPLSLSVSPGEPASISCKASQSLPHSLGNTYLYWFRQKPGQSPQRLIYKVSNRDPGVPDRFSGSGSGTDFTLRISRVEADDAGIYYCGQGIQDPFTFGQGTKLEIK
notes: also called PMX53
B2: PMX054 (antibody, V domains shown)
VH: EVHLVESGGDLVKPEGSLRLSCVVSGFTFSSYDMSWVRQAPGKGLQWVAYISSDGRSTGYTDAVKGRFTISRDNAKKTLYLQMNSLRSEDTAVYYCAKETPRWGFDYWGQGTLVTVSS
VL: SYVLTQLPSVSVTLRQTARITCGGASIGSKNVYWHQQKLGQAPLLIIYDDSSRPSGIPERFSGANSGNTATLTISGALAEDEADYYCQVWDSSTSVFGGGTHLTVL
notes: also called PMX54
B3: PMX055 (antibody)
heavy: EVQLEESGGDLVKPEGSLRLSCVVSGFTLSTFGMSWVRQAPGKGLQWVAYISSDGRSTSYTDAVKGRFTISRDNAKNTLYLQMNSLRTDDTAVYYCVQLGRGFGIDYWGHGTSLFVSSASTTAPSVFPLAPSCGSTSGSTVALACLVSGYFPEPVTVSWNSGSLTSGVHTFPSVLQSSGLYSLSSMVTVPSSRWPSETFTCNVAHPASKTKVDKPVPKRENGRVPRPPDCPKCPAPESLGGPSVFIFPPKPKDTLLIARTPEVTCVVVDLGREDPEVQISWFVDGKQMQTAKTQPREEQFNGTYRVVSVLPIGHQDWLKGKQFTCKVNHIGLPSPIERTISKARGQAHQPSVYVLPPSREELSKNTVSLTCLIKDFFPPDIDVEWQSNGQQEPESKYRTTPPQLDEDGSYFLYSKLSVDKSRWQRGDTFICAVMHEALHNHYTQKSLSHSPGK
VL: SYVLTQLPSKNVTLRQPAHIPCGGDNIGSKSVHWYQQKLGQAPVLIIYYDTSRPTGIPERFSGANSGNTATLTISGALAEDEADYYCQVWDSSAAVFGGGTHLTVL
notes: also called PMX55
B4: PMX056 (antibody)
heavy: B3 heavy with E5V, T31S, F32Y, K43R, T88S, D89E, I105M
VL: B3 VL with R15K, P21T, L45V, T51S, S52T
notes: also called PMX56
B5: PMX057 (antibody, V domains shown)
VH: EVQLVESGGDLVKPEGSLRLSCVVSGFTFNNYGMSWVRQAPGKGLQWVAYISIDGRSTSYTDAVKGRFTISRDNAKNTLYLHINSLRTEDTAVYYCTKLGRGFTFGYWGQGTLVTVSS
VL: B3 VL with R15K, P21T, V44A, T51S, A94V, A95S
notes: also called PMX57
B6: PMX058 (antibody, V domains shown)
VH: B5 VH with G26D, N30G, N31S, I53S, Y80H, H82Q, I83M, T97A, T104A
VL: B3 VL with R15K, P21T, T51S, S52N, A95S
notes: also called PMX58
B7: PMX059 (antibody, V domains shown)
VH: EVHLVESGGDLVKPEGSLRLSCVVSGFTFSNYVMNWVRQAPGKGLQWVAFISGDGRSTTYTDAVKSRFTISRDNAKNTLYLQMSSLRTEDTAIYFCAKEKYSSGWSFEYWGQGTLVTVSS
VL: B3 VL with R15K, P21T, T51S, A95S
notes: also called PMX59
B8: PMX036 (antibody, V domains shown)
VH: EVQLVESGGDLVKPGGSLRLSCVASGFTFSSYHMSWVRQAPGKGLQWVAYITSGGRTTSYADAVKGRFTISRDNAKNTLYLQMNSLRAEDTAVYYCASDLVLVLGGADYWGQGTLVTVSS
VL: SYELTQPPSVNVTLRETAHITCGGDSIGRKYVQWIQQNPGQAPVVIIYKDTNRPTGIPERFSGANSGNTATLTISGALAEDEADYYCQVGDSGTKAVFGGGTHLTVL
notes: also called PMX36
B9: PMX028 (antibody, V domains shown)
VH: B8 VH with L4M, S31D, R56S, T57S, L104V, A107G, D108V
VL: B8 VL with R29S, T51S, G100E, H103Q
notes: also called PMX28
B10: PMX032 (antibody, V domains shown)
VH: B8 VH with T69I, V103I
VL: B8 VL with T51N, T94S
notes: also called PMX32
B11: PMX033 (antibody, V domains shown)
VH: B8 VH with N84K, D108E
VL: B8 VL with T51S, T94S
notes: also called PMX33
B12: PMX034 (antibody, V domains shown)
VH: B8 VH with S31N, T52V, R56S, T57S, S59T, N84T, V103L, L104V
VL: B8 VL with R29S, T51S
notes: also called PMX34
B13: PMX038 (antibody, V domains shown)
VH: B8 VH with N84K, S98R, D108E
VL: B8 VL with T51S, T94S
notes: also called PMX38
B14: PMX042 (antibody, V domains shown)
VH: B8 VH with R56S, N84D, E89D, V103L
VL: B8 VL with N38H, T51Y
notes: also called PMX42

Tests used:
[1] = target: T1, recombinant canine OX40L ECD-TNCc-HIS protein (canine); experiment: SPR Koff (kd2)
T1 construct: also called Trimeric OX40L probe (HIS tag); trimeric canine OX40L
T1 chain: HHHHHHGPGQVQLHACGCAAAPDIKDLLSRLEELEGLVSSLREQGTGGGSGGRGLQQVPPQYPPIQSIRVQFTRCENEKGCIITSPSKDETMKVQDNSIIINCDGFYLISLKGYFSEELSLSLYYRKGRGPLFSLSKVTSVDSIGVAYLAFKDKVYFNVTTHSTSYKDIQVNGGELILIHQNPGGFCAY
Experimental: (§1) Affinity (Kd) of OX40L antibodies is measured by SPR, using a recombinant canine OX40L ECD-TNCc-HIS protein (Seq ID 811) as the capturing agent (FIG. 5B).
(§2) Functional affinity is determined using a Biakore 8K (Cytiva). in brief, purified OX40L ECD-TNCc-HIS protein is covalently bound at low density to the surface of a CM5 sensor chip (Cytiva) by amine coupling, using the manufacturer's recommended protocol. Candidate antibodies are subsequently passed across the chip surface at a range of concentrations and affinity determined using the dedicated software (Biacore Insight Evaluation Software). Curves were fitted using a bivalent analyte binding model.

[2] = target: T1, recombinant canine OX40L ECD-TNCc-HIS …; experiment: SPR KD1, bivalent analyte model
Experimental: as §1, §2

[3] = target: T2, canine OX40L, full length membrane form, expressed on HEK293 cells (canine); experiment: cell-based or functional assay
T2 chain: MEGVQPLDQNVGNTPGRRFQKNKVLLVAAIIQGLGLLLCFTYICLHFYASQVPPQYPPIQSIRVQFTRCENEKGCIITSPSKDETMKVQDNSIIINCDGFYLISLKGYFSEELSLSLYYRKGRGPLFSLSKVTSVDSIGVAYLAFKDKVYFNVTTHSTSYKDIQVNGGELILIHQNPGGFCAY

[4] = target: T1, recombinant canine OX40L ECD-TNCc-HIS …; experiment: SPR Koff (kd1)
Experimental: as §1, §2

[5] = target: T2, canine OX40L, full length membrane …; experiment: flow cytometry
In short: (§3)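 CHO supernatants at 1, 5 or 10 μg/ml in PBS/3% FBS incubated 30′ on ice with cells surface-expressing canine OX40L. Bound antibody detected with fluorescent anti-canine Fc secondary (1:1000, 30 min, dark) and measured by flow cytometry, with parental WT HEK signal subtracted where stated.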

[6] = target: T2, canine OX40L, full length membrane …; experiment: flow cytometry, OX40L HEK minus WT HEK
In short: as §3

Row | Binder | koff [1] [s⁻¹] | Kd [2] [nM] | % Signal Inhibition Average [3] [%] | % Signal Inhibition Rep1 [3] [%] | % Signal Inhibition Rep2 [3] [%] | % Signal Inhibition Rep3 [3] [%] | koff [4] [s⁻¹] | GEO mean OX40L expressing HEK [5] | GEO mean difference [6]
1 | B1 | 0.565 | 3.4 | 39.7 | 24.5 | 45.8 | 48.9 | 0.000587 | 3.03e+06 | 3e+06
2 | B2 | 0.0848 | 5.76 | 32 | 21 | 32.8 | 42 | 0.0345 | 3.27e+06 | 3.24e+06
3 | B3 | 0.401 | 5.43 | 52.8 | 48.3 | 57.7 | 52.3 | 0.00366 | 3.26e+06 | 3.23e+06
4 | B4 | 0.000624 | 61 | 44.3 | 27.3 | 57 | 48.5 | 0.0148 | 3.16e+06 | 3.13e+06
5 | B5 | 0.22 | 1.29 | 66 | 52.1 | 72 | 73.9 | 0.00472 | 3.32e+06 | 3.29e+06
6 | B6 | 0.323 | 8.46 | 29.1 | 12.4 | 35.3 | 39.5 | 0.0144 | 3.34e+06 | 3.31e+06
7 | B7 | 0.00737 | 10 | 57.8 | 51.1 | 64.3 | 58 | 0.00737 | 3.14e+06 | 3.11e+06
8 | B8 | 0.0522 | 21.6 | 77.4 | 87.6 | 79.1 | 65.5 | 0.00166 | 1.31e+06 | 1.28e+06
9 | B9 | 0.000627 | 17 | 66.4 | 61.7 | 75.4 | 62.1 | 0.00935 | 1.05e+06 | 1.02e+06
10 | B10 | 1.71e-05 | 7.2 | 70 | 76.8 | 57.4 | 75.7 | 0.00586 | 1.45e+06 | 1.42e+06
11 | B11 | 0.00101 | 36.4 | 60.3 | 55.8 | 69.8 | 55.4 | 0.0103 | 1.46e+06 | 1.43e+06
12 | B12 | 0.000252 | 7230 | 64.2 | 76.4 | 64.7 | 51.6 | 0.135 | 1.39e+06 | 1.36e+06
13 | B13 | 0.000796 | 100 | 68.5 | 79.8 | 75 | 50.8 | 0.0105 | 1.56e+06 | 1.53e+06
14 | B14 | 0.00056 | 274 | 78.8 | 77.8 | 87.5 | 71 | 0.0292 | 1.51e+06 | 1.48e+06
